Measured values reported in US20230272055A1, “ANTI-MUTANT CALRETICULIN (CALR) ANTIBODIES AND USES THEREOF” (Incyte Corporation, priority 2021, published 2023).
Numbering of substitutions follows the chain as printed. Where two headings read alike, the source gives them in different places.

Tests used:
[1] = target: Human Type 1 mutCALR (human); experiment: cell-based or functional assay
[2] = target: human Type 1 mutCALR (52 bp deletion) (human)
[3] = target: human Type 1 mutCALR (52 bp deletion) (human); remark: listed apart in the source
[4] = target: human Type 1 mutCALR (52 bp deletion) (human); remark: listed apart in the source
[5] = target: human Type 1 mutCALR (52 bp deletion) (human); remark: listed apart in the source
[6] = target: human Type 1 mutCALR (52 bp deletion) (human); remark: listed apart in the source
[7] = target: human Type 1 mutCALR on Ba/F3 cells expressing MPL and Type 1 mutCALR (human); experiment: cell-based or functional assay
Sequence of human Type 1 mutCALR on Ba/F3 cells expressing MPL and Type 1 mutCALR (human) (chain, as listed by the source limits assumed): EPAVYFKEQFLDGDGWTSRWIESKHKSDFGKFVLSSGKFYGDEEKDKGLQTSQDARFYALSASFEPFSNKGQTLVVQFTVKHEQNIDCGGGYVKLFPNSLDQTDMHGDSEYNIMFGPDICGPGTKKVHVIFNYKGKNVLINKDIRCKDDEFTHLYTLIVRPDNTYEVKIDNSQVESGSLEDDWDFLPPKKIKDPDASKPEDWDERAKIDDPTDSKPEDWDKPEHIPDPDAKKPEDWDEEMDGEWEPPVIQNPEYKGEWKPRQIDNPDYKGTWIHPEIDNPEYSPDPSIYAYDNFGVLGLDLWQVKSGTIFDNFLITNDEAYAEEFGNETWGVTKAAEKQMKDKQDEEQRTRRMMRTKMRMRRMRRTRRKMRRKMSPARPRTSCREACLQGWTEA

Sequence of human Type 1 mutCALR (52 bp deletion) (human) (chain, as listed by the source limits assumed, stated change not applied): as the sequence (chain, as listed by the source limits assumed) above
Sequence of Human Type 1 mutCALR (human) (chain, as listed by the source limits assumed): as above

B1: anti-mutCALR antibody clone 68 (antibody, human IgG1, lambda, N297A, V domains shown)
VH: EVQLVQSGAEVKKPGASVKVSCKVSGYTLTELSMQWVRQAPGKGLEWMGGFDPDEGETMYAEKFQGRLTVTEDTSTDTVYMELRSLTSEDTALYFCATSPGYDFFDYWGQGTLVTVSS
VL: SYVLTQPPSVSVAPGKTARITCTGTSSDVGGYNYVSWYQQKPGQAPVLVVYEVSNRPSGIPERFSGSNSGNTATLTISRVEAGDEADYYCQVWDSSNDLLIFGGGTKLTVLG
IC50 of inhibition of cell proliferation (Ba/F3 cells with MPL and mutCALR Type 1) [1]: 0.9 ng/mL | IC50 of inhibition of MPL-LgBiT/MPL-smBiT dimerization (NanoBiT luminescence, percent of isotype) in transfected HAP1 JAK2-knockout cells [2]: 3.27 ng/mL

B2: anti-mutCALR antibody clone 74 (antibody, human IgG1, lambda, N297A, V domains shown)
VH: B1 VH with E55D, G56A, R84S, T87R, L93V
VL: B1 VL
IC50 of inhibition of cell proliferation (Ba/F3 cells with MPL and mutCALR Type 1) [1]: 1 ng/mL | Log IC50 of inhibition of cell proliferation, antibody + ruxolitinib (Ba/F3-TPOR/mutCALR type 1 cells) (Log IC50 (µg/mL)) [1]: -1.46 | Log IC50 of inhibition of cell proliferation, antibody alone (Ba/F3-TPOR/mutCALR type 1 cells) (Log IC50 (µg/mL)) [1]: -0.438 | IC50 of inhibition of MPL-LgBiT/MPL-smBiT dimerization (NanoBiT luminescence, percent of isotype) in transfected HAP1 JAK2-knockout cells [3]: 8.89 ng/mL

B3: anti-mutCALR antibody clone 65 (antibody, human IgG1, lambda, N297A, V domains shown)
VH: B1 VH with E55D
VL: B1 VL
IC50 of inhibition of cell proliferation (Ba/F3 cells with MPL and mutCALR Type 1) [1]: 0.3 ng/mL | IC50 of inhibition of MPL-LgBiT/MPL-smBiT dimerization (NanoBiT luminescence, percent of isotype) in transfected HAP1 JAK2-knockout cells [4]: 3.27 ng/mL

B4: anti-mutCALR antibody clone 128 (antibody, human IgG1, lambda, N297A, V domains shown)
VH: B1 VH with E55D, G56A
VL: SYELTQPPSVSVAPGKTARITCGGDNIGSKSVHWYQQKPGQAPVLVVYDDSDRPSGIPERFSGSNSGNTATLTINRVEAGDEADYYCQVWDSSNDLLIFGGGTKLTVLG
IC50 of inhibition of cell proliferation (Ba/F3 cells with MPL and mutCALR Type 1) [1]: 9.8 ng/mL

B5: anti-mutCALR antibody clone 184 (antibody, human IgG1, lambda, N297A, V domains shown)
VH: B1 VH with E55D, G56A
VL: B4 VL with E3V, K16Q, D25S, N26D, S29D, K30E, S31I, N75S, N94S, L96H
IC50 of inhibition of MPL-LgBiT/MPL-smBiT dimerization (NanoBiT luminescence, percent of isotype) in transfected HAP1 JAK2-knockout cells [5]: 3.77 ng/mL | IC50 of inhibition of cell proliferation (Ba/F3 cells with MPL and mutCALR Type 1) [1]: 1.9 ng/mL

B6: anti-mutCALR antibody clone 188 (antibody, human IgG1, lambda, N297A, V domains shown)
VH: B1 VH with R84S, T87R, L93V
VL: B4 VL with E3V, K16Q, D25S, N26D, S29D, K30E, S31I, N75S, N94S, L96H
IC50 of inhibition of cell proliferation (Ba/F3 cells with MPL and mutCALR Type 1) [1]: 4.6 ng/mL | IC50 of inhibition of MPL-LgBiT/MPL-smBiT dimerization (NanoBiT luminescence, percent of isotype) in transfected HAP1 JAK2-knockout cells [6]: 2.48 ng/mL

B7: AB2: anti-mutCALR antibody including VH and VL regions of antibody B3 from WO2020175689 fused to human constant regions (antibody, human IgG1, kappa, V domains shown)
VH: QVQLQQSGAELVKPGSSVKISCKASGYTFTRNFIHWIKQQPGNGLEWIGWIFPGDGDTEYNQKFNGKATLTADKSSSTAYMQLSSLTSEDSAVYFCARGNYNYEYFDYWGQGVMVTVSS
VL: DIQMTQSPASLSASLGETVSIECLASEDIYSYLAWYQQKPGKSPQLLIFAANRLQDGVPSRFSGSGSGTQFSLKISGMQPEDEGDYFCLQGSKFPYTFGPGTKLELNR
IC50 of inhibition of cell proliferation (BaF3 cells expressing MPL/mutCALR Type 1) [1]: > 60000 ng/mL

B8: AB3: anti-mutCALR antibody including the BJ095 VH region and the BJ097 VL region from WO2019178362 fused to human constant regions (antibody, human IgG1, kappa, V domains shown)
VH: QVQLVQSGAEVKKPGASVKVSCKASGYSFTGYYIHWVRQAPGQGLEWIGYISAYNGASSYNQKFKGRATFTVDTSISTAYMELSRLRSDDTAVYYCASSMDYWGQGTLVTVSS
VL: DVVMTQSPLSLPVTLGQPASISCKSSQSLLDSDGKTYLNWLQQRPGQSPKRLIYLVSKLDSGVPDRFSGSGSGTDFTLKISRVEAEDVGVYHCWQGTHFPYTFGQGTKLIEKR
IC50 of inhibition of cell proliferation (BaF3 cells expressing MPL/mutCALR Type 1) [1]: > 60000 ng/mL

B9: anti-mutCALR antibody clone 14 (antibody, human IgG1, lambda, V domains shown)
VH: B1 VH with E55D, T69A
VL: B4 VL with E3V, D25Y, S31F, Q36R, K38R, S51R, N75S
IC50, inhibition of pSTAT5 [7]: 0.06 µg/mL

B10: anti-mutCALR antibody clone 54 (antibody, human IgG1, kappa, V domains shown)
VH: QVTLKESGPGILKPSQTLSLTCSFSGFSLSTSGMGVGWIRQPSGKGLEWLAHIWWDDDKYYNPYLKNQVTISKDTSRNQVFLKITSVDTADTATYYCARSAYGSTYGYWGQGTTLTVSS
VL: DIVLTQSPASLAVSLGQRATISCKASQSVDYDGDSFMNWYQQKPGQPPKLLIYTASILESGIPARFSGSGSGTDFTLNIHPVEEEDAATYYCQQSNEDPWTFGGGTKLEIKR
IC50, inhibition of pSTAT5 [7]: 12.7 µg/mL
